Data on 13 molecules can be found in US20260001953A1 (TWIST BIOSCIENCE, published 2026).

T1: SIGLEC-5 (limits assumed)
T1 construct: also called OB-BP-2
T1 receptor: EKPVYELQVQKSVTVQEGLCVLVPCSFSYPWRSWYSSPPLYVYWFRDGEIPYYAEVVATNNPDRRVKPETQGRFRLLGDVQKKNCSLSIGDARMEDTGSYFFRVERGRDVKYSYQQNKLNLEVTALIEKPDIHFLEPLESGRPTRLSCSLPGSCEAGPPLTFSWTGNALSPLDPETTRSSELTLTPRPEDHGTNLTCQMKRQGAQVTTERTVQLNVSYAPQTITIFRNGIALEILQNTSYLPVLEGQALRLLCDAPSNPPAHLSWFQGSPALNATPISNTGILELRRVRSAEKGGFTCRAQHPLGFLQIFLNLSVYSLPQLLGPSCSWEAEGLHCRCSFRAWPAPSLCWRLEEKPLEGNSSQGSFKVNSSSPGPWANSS

B1: SIGLEC-8-48 (antibody, human IgG1, kappa, V domains shown)
VH: EVQLLESGGGLVQPGGSLRLSCAASGFNFRSYAMSWVRQAPGKGLEWVSGISGSGGSAYYADSVKGRFTISRDNSKNTLYLQMNSLRAEDTAVYYCAREGYNWAVDYWGQGTLVTVSS
VL: DIQMTQSPSSLSASVGDRVTITCRASQSISGFLNWYQQKPGKAPKLLIYGASILQSGVPSRFSGSGSGTDFTLTISSLQPEDFATYYCQQTYSTPRSFGGGTKVEIKR
notes: tested as expressed and purified mAb
B2: SIGLEC-8-11 (antibody, human IgG1, kappa, V domains shown)
VH: EVQLLESGGGLVQPGGSLRLSCAASGLTFSNYDMSWVRQAPGKGLEWVSAISTSGGGSGGSTYYADSVKGRFTISRDNSKNTLYLQMNSLRAEDTAVYYCAREANNYYYGMDVWGQGTLVTVSS
VL: DIQMTQSPSSLSASVGDRVTITCRASQTISSYLHWYQQKPGKAPKLLIYAASSLHTGVPSRFSGSGSGTDFTLTISSLQPEDFATYYCQQSSSTPLTFGGGTKVEIKR
notes: as for B1
B3: SIGLEC-8-56 (antibody, human IgG1, kappa, V domains shown)
VH: EVQLLESGGGLVQPGGSLRLSCAASGLTFSSSAMSWVRQAPGKGLEWVSAISGYGGSTYYADSVKGRFTISRDNSKNTLYLQMNSLRAEDTAVYYCAREAGYYYYGMDVWGQGTLVTVSS
VL: B2 VL with T28K, S30T, H34N, T56D, S92Y, S93G
notes: as for B1
B4: SIGLEC-8-32 (antibody, human IgG1, kappa, V domains shown)
VH: EVQLLESGGGLVQPGGSLRLSCAASGFTLSSYVMSWVRQAPGKGLEWVSAISGSGATTYYADSVKGRFTISRDNSKNTLYLQMNSLRAEDTAVYYCAREVAGIFDYWGQGTLVTVSS
VL: B1 VL with A25S, G31T, F32Y, G50A, I53Y, T91S, S93D, R96L, S97T
notes: as for B1
B5: SIGLEC-8-34 (antibody, human IgG1, kappa, V domains shown)
VH: B3 VH with L27F, S31R, S32H, S35G, A50S, Y54S, G56Y, A100N, Y102Q
VL: B2 VL with S30T, S31T, H34N, S53H, H55Q, S92Y, T97S
notes: as for B1
B6: SIGLEC-8-24 (antibody, human IgG1, kappa, V domains shown)
VH: B3 VH with L27F, S32T, Y54T, A100S, G101D, Y103D, Y105F
VL: B1 VL with I29V, G31S, F32Y, L33V, I53S, S56D, T91S, T94V, R96V, S97T
notes: as for B1
B7: SIGLEC-8-17 (antibody, human IgG1, kappa, V domains shown)
VH: EVQLLESGGGLVQPGGSLRLSCAASGFPFSNYAMGWVRQAPGKGLEWVSGISASGSSTYYADSVKGRFTISRDNSKNTLYLQMNSLRAEDTAVYYCAREDSGKYLSLDYWGQGTLVTVSS
VL: B2 VL with A25T, T28S, Y32H, H34N, H55Q, T56P, S92Y, S93N, L96P
notes: as for B1
B8: SIGLEC-8-7 (antibody, human IgG1, kappa, V domains shown)
VH: EVQLLESGGGLVQPGGSLRLSCAASGFTFSNHAMAWVRQAPGKGLEWVSGISGSAASTYYADSVKGRFTISRDNSKNTLYLQMNSLRAEDTAVYYCARDLLALPYAFDIWGQGTLVTVSS
VL: B2 VL with T28S, I29T, H34S, A51V, S53T, H55Q, T56S, S92Y, T94V
notes: as for B1
B9: SIGLEC-8-8 (antibody, human IgG1, kappa, V domains shown)
VH: EVQLLESGGGLVQPGGSLRLSCAASGFTFNYYALSWVRQAPGKGLEWVSGISGSGGTTFYADSVKGRFTISRDNSKNTLYLQMNSLRAEDTAVYYCARRGGWYSFDIWGQGTLVTVSS
VL: DIQMTQSPSTLSAYVGDRVTITCRASQIISTYLNWYQQKPGKAPKLLIYSASSLQSGVPSRFSGSGSGTDFTLTISSLQPEDFATYYCQQSFSAPDTFGGGTKVEIKR
notes: as for B1
B10: SIGLEC-8-57 (antibody, human IgG1, kappa, V domains shown)
VH: EVQLLESGGGLVQPGGSLRLSCAASGFAFSRYAMSWVRQAPGKGLEWVSGISGSGGRTHYADSVKGRFTISRDNSKNTLYLQMNSLRAEDTAVYYCARQSRGGSLGMDVWGQGTLVTVSS
VL: B1 VL with F32Y, A51S, I53T, T91S, T94P, R96W, S97T
notes: as for B1
B11: SIGLEC-8-10 (antibody, human IgG1, kappa, V domains shown)
VH: EVQLLESGGGLVQPGGSLRLSCAASGFTFNNYAMAWVRQAPGKGLEWVSAISGSGSSPYYADSVKGRFTISRDNSKNTLYLQMNSLRAEDTAVYYCARDQIVAMDVWGQGTLVTVSS
VL: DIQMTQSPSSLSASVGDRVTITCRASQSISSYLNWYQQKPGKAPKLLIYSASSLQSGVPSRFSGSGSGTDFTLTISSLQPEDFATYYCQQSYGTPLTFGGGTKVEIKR
notes: as for B1
B12: SIGLEC-8-54 (antibody, human IgG1, kappa, V domains shown)
VH: B11 VH
VL: B1 VL with A25G, G31S, F32Y, G50D, I53S, T91S, S93R, R96I, S97T
notes: as for B1
B13: SIGLEC-8-19 (antibody, human IgG1, kappa, V domains shown)
VH: EVQLLESGGGLVQPGGSLRLSCAASGFTFRTYDMSWVRQAPGKGLEWVSAISGGGGSTYYADSVKGRFTISRDNSKNTLYLQMNSLRAEDTAVYYCARDSSYRWFSMDVWGQGTLVTVSS
VL: B1 VL with S26G, G31T, F32Y, I53K, S93R, R96L, S97T
notes: as for B1

Positions count from the first letter of the chain named.

T5 sequence (chain, as listed by the source limits assumed): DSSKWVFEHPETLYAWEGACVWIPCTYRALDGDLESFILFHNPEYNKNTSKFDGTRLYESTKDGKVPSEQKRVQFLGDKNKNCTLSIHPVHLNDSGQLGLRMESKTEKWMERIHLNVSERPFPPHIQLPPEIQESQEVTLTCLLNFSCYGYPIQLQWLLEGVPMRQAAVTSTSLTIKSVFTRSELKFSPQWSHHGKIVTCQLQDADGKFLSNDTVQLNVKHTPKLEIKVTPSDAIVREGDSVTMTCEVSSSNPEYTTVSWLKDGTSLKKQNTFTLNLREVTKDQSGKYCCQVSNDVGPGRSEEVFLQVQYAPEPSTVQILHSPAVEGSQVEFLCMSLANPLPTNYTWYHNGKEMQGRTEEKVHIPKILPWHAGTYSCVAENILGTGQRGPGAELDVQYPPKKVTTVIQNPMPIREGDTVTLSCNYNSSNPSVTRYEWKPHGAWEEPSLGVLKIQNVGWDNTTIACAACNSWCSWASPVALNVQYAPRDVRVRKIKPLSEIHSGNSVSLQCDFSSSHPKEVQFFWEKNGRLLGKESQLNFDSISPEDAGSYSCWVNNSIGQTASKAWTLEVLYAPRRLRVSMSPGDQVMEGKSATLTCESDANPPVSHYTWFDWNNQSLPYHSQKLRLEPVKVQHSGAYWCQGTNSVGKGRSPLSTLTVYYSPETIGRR
T3 sequence (receptor, as listed by the source limits assumed): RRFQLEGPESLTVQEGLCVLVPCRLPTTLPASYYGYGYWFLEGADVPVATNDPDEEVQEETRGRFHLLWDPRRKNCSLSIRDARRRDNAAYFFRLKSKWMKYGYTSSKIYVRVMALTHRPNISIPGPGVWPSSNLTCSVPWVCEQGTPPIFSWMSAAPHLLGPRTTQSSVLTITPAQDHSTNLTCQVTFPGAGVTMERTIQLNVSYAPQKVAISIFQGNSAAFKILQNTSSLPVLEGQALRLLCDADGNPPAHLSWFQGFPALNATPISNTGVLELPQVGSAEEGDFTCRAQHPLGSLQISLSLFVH
T7 sequence (Q9NYZ4 17-363 limits assumed): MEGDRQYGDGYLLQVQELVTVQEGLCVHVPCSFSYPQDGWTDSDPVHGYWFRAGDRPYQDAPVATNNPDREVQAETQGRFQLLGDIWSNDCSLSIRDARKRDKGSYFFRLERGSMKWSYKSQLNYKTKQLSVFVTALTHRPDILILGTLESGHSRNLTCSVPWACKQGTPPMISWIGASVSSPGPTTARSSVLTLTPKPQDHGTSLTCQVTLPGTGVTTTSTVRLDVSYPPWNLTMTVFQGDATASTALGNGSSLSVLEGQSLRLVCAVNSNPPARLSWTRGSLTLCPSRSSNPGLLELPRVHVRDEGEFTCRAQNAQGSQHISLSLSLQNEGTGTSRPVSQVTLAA

The target of one test is T2, SIGLEC-8 transiently expressed on cells (UniProt Q9NYZ4 17-499, limits assumed).
T2 construct: whole, on cells; Two cassettes are described (P2A mVenus and direct mVenus fusion); also called the transient line; pTT5-SIGLEC-8 P2A mVenus
T2 sequence (Q9NYZ4 17-499 limits assumed): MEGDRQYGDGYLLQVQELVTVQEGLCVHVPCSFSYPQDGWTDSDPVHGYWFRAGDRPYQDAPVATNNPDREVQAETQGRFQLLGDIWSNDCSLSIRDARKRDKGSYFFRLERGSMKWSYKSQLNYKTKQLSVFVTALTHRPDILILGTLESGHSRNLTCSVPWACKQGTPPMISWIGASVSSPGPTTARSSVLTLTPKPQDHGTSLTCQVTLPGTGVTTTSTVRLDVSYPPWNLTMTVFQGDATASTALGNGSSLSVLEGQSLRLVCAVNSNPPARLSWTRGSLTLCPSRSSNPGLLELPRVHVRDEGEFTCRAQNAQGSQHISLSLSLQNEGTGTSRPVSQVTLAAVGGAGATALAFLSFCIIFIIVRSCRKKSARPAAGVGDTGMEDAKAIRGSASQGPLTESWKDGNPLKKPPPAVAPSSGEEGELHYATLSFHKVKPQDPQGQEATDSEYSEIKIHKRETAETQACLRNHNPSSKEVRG
Description: cell binding titration, transient SIGLEC-8 line.
Usually EC50 stands for the midpoint of the concentration-response curve. B1: the midpoint of the response, the EC50, lay at 12.3 nM. In other words, the double-digit nanomolar range.

The molecule B2 came in with an EC50 of 2.19 nM.

Take B3: the EC50 came to 1.02 nM.

As to B4, the EC50 amounted to 3.81 nM. Compared with the last molecule, the EC50 is about 3.7-fold higher.

In turn, B5 yielded an EC50 of 1.95 nM.

Consider B6, for which the EC50 worked out at 1.05 nM.

Molecule B7 registered an EC50 of 1.25 nM.

Consider B8, for which the response was half-maximal at 0.813 nM (EC50).

As to B9, the EC50 stood at 1.3 nM.

B10 came in with an EC50 of 1.73 nM. This EC50 and that of the molecule before are within 1.5-fold of each other.

For B11, the EC50 worked out at 1.09 nM.

B12 yielded an EC50 of 0.527 nM.

Another test concerns the target T1, SIGLEC-5. Description: SPR cross-reactivity table. A digest of the protocol: (§1)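 Values are dissociation constants or binding results, one per protein tested, from surface plasmon resonance run on a Carterra instrument. The antibodies, raised against SIGLEC-8, were assessed for cross-reactivity with related SIGLEC proteins. They had been selected from synthetic libraries over four rounds of bead-based panning, screened by clonal ELISA, then expressed and purified.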
The Kd is the free concentration of one partner at which half of the binding sites on the other are occupied at equilibrium, for simple one-to-one binding. Low readings indicate a tighter complex, high ones a looser complex. On to B13, for which binding was characterised by a dissociation constant (Kd) of 14.5 nM.

As for B1, the binding result is “no binding”.

Take B2: the dissociation constant (Kd) was found to be 29.7 nM.

In turn, B3 returned a Kd of 3.4 nM.

In turn, B4 gave a Kd of 4.2 nM.

In turn, B5 came in with a Kd of 5.5 nM.

As to B6, binding was characterised by a dissociation constant (Kd) of 33.7 nM.

Take B7: the binding result is “no binding”.

The molecule B8 had a Kd of 123 nM.

In turn, B9 came in with a Kd of 39.3 nM. This Kd is about 3.1-fold lower than that of the molecule before.

B10 gave a Kd of 28.3 nM.

For the molecule B11, the binding result is on record as “no binding”.

B12 returned a Kd of 19.9 nM.

Another test concerns the target T3, SIGLEC-6.
T3 construct: also called OB-BP-1
Kind of test: SPR cross-reactivity table. An outline of the steps:
as §1
In turn, B13 registered a Kd of 1070 nM. This counts as single-digit micromolar.

B1: the binding result is on record as “no binding”.

Consider B2, for which the binding result was “no binding”.

B4 came in with a Kd of 5.3 nM.

For the molecule B5, the Kd amounted to 6.9 nM.

B6: the binding result is on record as “no binding”.

In the case of B7, the binding result is on record as “no binding”.

On to B8, for which the binding result was “no binding”.

As to B10, binding was put at a Kd of 9.6 nM.

Take B11: the binding result is “no binding”.

In turn, B12 had a dissociation constant (Kd) of 12 nM.

The next test deals with T4, SIGLEC-7.
T4 construct: also called p75/AIRM1
T4 sequence (receptor, as listed by the source limits assumed): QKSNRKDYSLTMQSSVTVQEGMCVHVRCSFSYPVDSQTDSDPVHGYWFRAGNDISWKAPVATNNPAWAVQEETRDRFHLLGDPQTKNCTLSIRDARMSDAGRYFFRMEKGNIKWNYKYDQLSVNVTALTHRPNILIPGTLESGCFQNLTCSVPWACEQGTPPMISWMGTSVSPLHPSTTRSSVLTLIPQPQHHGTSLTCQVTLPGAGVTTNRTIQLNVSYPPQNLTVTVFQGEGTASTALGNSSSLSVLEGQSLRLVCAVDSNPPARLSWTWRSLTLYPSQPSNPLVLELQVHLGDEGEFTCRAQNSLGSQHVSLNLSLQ
Kind of test: SPR cross-reactivity table. An outline of the steps:
as §1
For the molecule B13, the binding result was “no binding”.

As to B1, the binding result is reported as “no binding”.

For B2, the binding result was “no binding”.

In the case of B3, binding was characterised by a dissociation constant (Kd) of 18 nM.

Turning to B4, the Kd turned out to be 17.4 nM.

On to B5, for which the binding result is on record as “no binding”.

Take B6: the binding result is recorded as “no binding”.

For the molecule B7, the binding result is listed as “no binding”.

On to B8, for which the binding result is recorded as “no binding”.

For the molecule B9, the binding result was “no binding”.

Consider B10, for which the binding result is “no binding”.

Consider B11, for which the binding result is “no binding”.

Turning to B12, the binding result is listed as “no binding”.

The next test addresses T5, SIGLEC-2.
T5 construct: also called CD22
Kind of test: SPR cross-reactivity table. An outline of the steps:
as §1
Regarding B13, the binding result is “no binding”.

In the case of B1, the Kd worked out at 629 nM.

For the molecule B2, the binding result is “no binding”.

Molecule B3 registered a Kd of 43.2 nM.

As to B4, the Kd was 128 nM.

The molecule B5 registered a Kd of 208 nM.

The molecule B7 had a Kd of 836 nM.

As for B8, the binding result is “no binding”.

Regarding B9, the Kd was determined as 4300 nM.

For B10, the binding result is “no binding”.

Take B11: the Kd is 755 nM.

Regarding B12, the binding result was “no binding”.

Another test deals with T6, SIGLEC-3.
T6 construct: also called CD33
T6 sequence (receptor, as listed by the source limits assumed): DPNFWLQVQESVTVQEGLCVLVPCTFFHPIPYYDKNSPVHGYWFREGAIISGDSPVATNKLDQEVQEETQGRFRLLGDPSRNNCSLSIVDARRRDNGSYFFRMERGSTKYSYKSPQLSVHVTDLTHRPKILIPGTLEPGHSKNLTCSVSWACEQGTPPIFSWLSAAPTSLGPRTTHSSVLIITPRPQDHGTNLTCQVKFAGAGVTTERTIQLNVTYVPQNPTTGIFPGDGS
Kind of test: SPR cross-reactivity table. An outline of the steps:
as §1
With B13, the binding result is reported as “no binding”.

For B1, the binding result is listed as “no binding”.

Take B2: the binding result was “no binding”.

Take B3: the Kd was determined as 60.5 nM.

B5 displayed a Kd of 62.2 nM.

On to B6, for which the binding result is “no binding”.

On to B7, for which the binding result is listed as “no binding”.

Take B8: the binding result was “no binding”.

With B9, the binding result is given as “no binding”.

Turning to B10, the binding result is “no binding”.

B11: the binding result is given as “no binding”.

For B12, the binding result is “no binding”.

Another test has as its target T7, Sialic acid-binding immunoglobulin-like lectin 8 (SIGLEC-8), antigen of the Carterra SPR studies (UniProt Q9NYZ4 17-363, limits assumed). Kind of test: Carterra SPR. A digest of the protocol:
(§2)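 Binding kinetics of antibodies to SIGLEC-8 were measured by surface plasmon resonance on a Carterra instrument. The antibodies came from synthetic antibody libraries panned over four rounds with a bead-based strategy and screened by clonal ELISA. Selected clones were expressed and purified before testing. The read-outs are rate constants, dissociation constants or results from these kinetic runs.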
In the case of B13, binding was characterised by a dissociation constant (Kd) of 4.86 nM.

B1 registered a Kd of 336 nM.

Molecule B2 had a Kd of 0.217 nM.

Consider B3, for which the Kd is 0.271 nM.

In turn, B4 registered a Kd of 19.2 nM.

Molecule B5 gave a Kd of 9.23 nM. Compared with the last molecule, the Kd is about 2.1-fold lower.

B6 returned a Kd of 0.822 nM.

B7: the Kd came out at 8.89 nM.

With B8, binding was put at a Kd of 1.12 nM.

B9 came in with a Kd of 1.65 nM.

Regarding B10, binding was put at a Kd of 990 nM.

B11: the affinity, expressed as Kd, was 3.17 nM.

In the case of B12, binding was characterised by a dissociation constant (Kd) of 1.06 nM.

For a further test, the target named is T7, Sialic acid-binding immunoglobulin-like …. Description: Carterra SPR kinetics, summary table. A digest of the protocol: as §2
A general note: SPR reads the build-up and loss of mass on a sensor chip optically.
The term koff denotes the first-order rate constant of dissociation. One may read the kon as the rate constant with which the complex forms. The molecule B2 gave a koff of 7.23e-05 s⁻¹ and a kon of 334000 M⁻¹ s⁻¹.

Regarding B3, the koff worked out at 0.000156 s⁻¹ and the kon was determined as 576000 M⁻¹ s⁻¹.

In turn, B6 returned a koff of 0.000194 s⁻¹ and a kon of 236000 M⁻¹ s⁻¹.
